Measurements reported in patent publication US20250298024A1.
Values belong to the substance of their own block, whether it stands above or below them.

How the values were obtained:
[1] = molecular target: polypeptide molecule 7 (bovine) (UniProt P19111); assay: HI-1000 capture immunoassay, ALP chemiluminescence; calibrator C2 (0.0711728 ug/mL), run 3
[2] = molecular target: polypeptide molecule 7 (bovine) (UniProt P19111); assay: HI-1000 capture immunoassay, ALP chemiluminescence; calibrator C2 (0.0711728 ug/mL), run 2
[3] = molecular target: polypeptide molecule 7 (bovine) (UniProt P19111); assay: HI-1000 capture immunoassay, ALP chemiluminescence; calibrator C1 (0.0177932 ug/mL), run 2
[4] = molecular target: polypeptide molecule 7 (bovine) (UniProt P19111); assay: HI-1000 capture immunoassay, ALP chemiluminescence; calibrator C3 (0.2846914 ug/mL), mean of 3
[5] = molecular target: polypeptide molecule 7 (bovine) (UniProt P19111); assay: HI-1000 capture immunoassay, ALP chemiluminescence; calibrator C1 (0.0177932 ug/mL), mean of 3
[6] = molecular target: polypeptide molecule 7 (bovine) (UniProt P19111); assay: HI-1000 capture immunoassay, ALP chemiluminescence; calibrator C4 (2.562222 ug/mL), run 1
[7] = molecular target: polypeptide molecule 7 (bovine) (UniProt P19111); assay: HI-1000 capture immunoassay, ALP chemiluminescence; calibrator C3 (0.2846914 ug/mL), run 1
[8] = molecular target: polypeptide molecule 7 (bovine) (UniProt P19111); assay: HI-1000 capture immunoassay, ALP chemiluminescence; calibrator C4 (2.562222 ug/mL), run 2
[9] = molecular target: polypeptide molecule 7 (bovine) (UniProt P19111); assay: HI-1000 capture immunoassay, ALP chemiluminescence; calibrator C3 (0.2846914 ug/mL), run 3
[10] = molecular target: polypeptide molecule 7 (bovine) (UniProt P19111); assay: HI-1000 capture immunoassay, ALP chemiluminescence; calibrator C5 (7.686667 ug/mL), run 1
[11] = molecular target: polypeptide molecule 7 (bovine) (UniProt P19111); assay: HI-1000 capture immunoassay, ALP chemiluminescence; calibrator C5 (7.686667 ug/mL), run 2
[12] = molecular target: polypeptide molecule 7 (bovine) (UniProt P19111); assay: HI-1000 capture immunoassay, ALP chemiluminescence; calibrator C5 (7.686667 ug/mL), run 3
[13] = molecular target: polypeptide molecule 7 (bovine) (UniProt P19111); assay: HI-1000 capture immunoassay, ALP chemiluminescence; calibrator C4 (2.562222 ug/mL), run 3
[14] = molecular target: polypeptide molecule 7 (bovine) (UniProt P19111); assay: HI-1000 capture immunoassay, ALP chemiluminescence; calibrator C1 (0.0177932 ug/mL), run 3
[15] = molecular target: polypeptide molecule 7 (bovine) (UniProt P19111); assay: HI-1000 capture immunoassay, ALP chemiluminescence; calibrator C5 (7.686667 ug/mL), mean of 3
[16] = molecular target: polypeptide molecule 7 (bovine) (UniProt P19111); assay: HI-1000 capture immunoassay, ALP chemiluminescence; calibrator C2 (0.0711728 ug/mL), mean of 3
[17] = molecular target: polypeptide molecule 7 (bovine) (UniProt P19111); assay: HI-1000 capture immunoassay, ALP chemiluminescence; calibrator C3 (0.2846914 ug/mL), run 2
[18] = molecular target: polypeptide molecule 7 (bovine) (UniProt P19111); assay: HI-1000 capture immunoassay, ALP chemiluminescence; calibrator C2 (0.0711728 ug/mL), run 1
[19] = molecular target: polypeptide molecule 7 (bovine) (UniProt P19111); assay: HI-1000 capture immunoassay, ALP chemiluminescence; calibrator C4 (2.562222 ug/mL), mean of 3
[20] = molecular target: polypeptide molecule 7 (bovine) (UniProt P19111); assay: HI-1000 capture immunoassay, ALP chemiluminescence; calibrator C1 (0.0177932 ug/mL), run 1
[21] = molecular target: polypeptide molecule 8 (human) (UniProt P05186); assay: sandwich ELISA, ALP-labeled anti-TNAP detection; calibrator C1 (17.5 ug/mL), run 1
UniProt P05186, sequence (P05186 other isoform, or with tags, fused parts or gaps limits assumed): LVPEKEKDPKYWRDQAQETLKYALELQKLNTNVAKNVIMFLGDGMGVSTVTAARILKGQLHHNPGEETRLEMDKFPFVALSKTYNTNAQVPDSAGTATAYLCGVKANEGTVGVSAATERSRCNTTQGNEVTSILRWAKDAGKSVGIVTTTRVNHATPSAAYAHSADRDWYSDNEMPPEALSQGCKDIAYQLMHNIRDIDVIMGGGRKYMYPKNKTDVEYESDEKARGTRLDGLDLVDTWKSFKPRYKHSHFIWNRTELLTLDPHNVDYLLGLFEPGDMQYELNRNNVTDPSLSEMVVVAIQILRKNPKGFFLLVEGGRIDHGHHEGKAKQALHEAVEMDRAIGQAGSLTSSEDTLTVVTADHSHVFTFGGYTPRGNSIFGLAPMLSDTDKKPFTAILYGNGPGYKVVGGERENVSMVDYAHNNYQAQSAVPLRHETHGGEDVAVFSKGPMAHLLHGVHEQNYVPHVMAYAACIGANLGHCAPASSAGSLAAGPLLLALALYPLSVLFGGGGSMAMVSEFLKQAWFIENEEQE

[22] = molecular target: polypeptide molecule 8 (human) (UniProt P05186); assay: sandwich ELISA, ALP-labeled anti-TNAP detection; calibrator C2 (35 ug/mL), run 3
[23] = molecular target: polypeptide molecule 8 (human) (UniProt P05186); assay: sandwich ELISA, ALP-labeled anti-TNAP detection; calibrator C1 (17.5 ug/mL), mean of 3
[24] = molecular target: polypeptide molecule 8 (human) (UniProt P05186); assay: sandwich ELISA, ALP-labeled anti-TNAP detection; calibrator C5 (280 ug/mL), run 2
[25] = molecular target: polypeptide molecule 8 (human) (UniProt P05186); assay: sandwich ELISA, ALP-labeled anti-TNAP detection; calibrator C3 (70 ug/mL), run 2
[26] = molecular target: polypeptide molecule 8 (human) (UniProt P05186); assay: sandwich ELISA, ALP-labeled anti-TNAP detection; calibrator C5 (280 ug/mL), run 3
[27] = molecular target: polypeptide molecule 8 (human) (UniProt P05186); assay: sandwich ELISA, ALP-labeled anti-TNAP detection; calibrator C2 (35 ug/mL), run 2
[28] = molecular target: polypeptide molecule 8 (human) (UniProt P05186); assay: sandwich ELISA, ALP-labeled anti-TNAP detection; calibrator C4 (140 ug/mL), run 1
[29] = molecular target: polypeptide molecule 8 (human) (UniProt P05186); assay: sandwich ELISA, ALP-labeled anti-TNAP detection; calibrator C3 (70 ug/mL), mean of 3
[30] = molecular target: polypeptide molecule 8 (human) (UniProt P05186); assay: sandwich ELISA, ALP-labeled anti-TNAP detection; calibrator C5 (280 ug/mL), run 1
[31] = molecular target: polypeptide molecule 8 (human) (UniProt P05186); assay: sandwich ELISA, ALP-labeled anti-TNAP detection; calibrator C2 (35 ug/mL), mean of 3
[32] = molecular target: polypeptide molecule 8 (human) (UniProt P05186); assay: sandwich ELISA, ALP-labeled anti-TNAP detection; calibrator C4 (140 ug/mL), mean of 3
[33] = molecular target: polypeptide molecule 8 (human) (UniProt P05186); assay: sandwich ELISA, ALP-labeled anti-TNAP detection; calibrator C4 (140 ug/mL), run 2
[34] = molecular target: polypeptide molecule 8 (human) (UniProt P05186); assay: sandwich ELISA, ALP-labeled anti-TNAP detection; calibrator C3 (70 ug/mL), run 3
[35] = molecular target: polypeptide molecule 8 (human) (UniProt P05186); assay: sandwich ELISA, ALP-labeled anti-TNAP detection; calibrator C2 (35 ug/mL), run 1
[36] = molecular target: polypeptide molecule 8 (human) (UniProt P05186); assay: sandwich ELISA, ALP-labeled anti-TNAP detection; calibrator C5 (280 ug/mL), mean of 3
[37] = molecular target: polypeptide molecule 8 (human) (UniProt P05186); assay: sandwich ELISA, ALP-labeled anti-TNAP detection; calibrator C1 (17.5 ug/mL), run 2
[38] = molecular target: polypeptide molecule 8 (human) (UniProt P05186); assay: sandwich ELISA, ALP-labeled anti-TNAP detection; calibrator C3 (70 ug/mL), run 1
[39] = molecular target: polypeptide molecule 8 (human) (UniProt P05186); assay: sandwich ELISA, ALP-labeled anti-TNAP detection; calibrator C4 (140 ug/mL), run 3
[40] = molecular target: polypeptide molecule 8 (human) (UniProt P05186); assay: sandwich ELISA, ALP-labeled anti-TNAP detection; calibrator C1 (17.5 ug/mL), run 3

UniProt P19111, sequence (P19111 other isoform, or with tags, fused parts or gaps limits assumed): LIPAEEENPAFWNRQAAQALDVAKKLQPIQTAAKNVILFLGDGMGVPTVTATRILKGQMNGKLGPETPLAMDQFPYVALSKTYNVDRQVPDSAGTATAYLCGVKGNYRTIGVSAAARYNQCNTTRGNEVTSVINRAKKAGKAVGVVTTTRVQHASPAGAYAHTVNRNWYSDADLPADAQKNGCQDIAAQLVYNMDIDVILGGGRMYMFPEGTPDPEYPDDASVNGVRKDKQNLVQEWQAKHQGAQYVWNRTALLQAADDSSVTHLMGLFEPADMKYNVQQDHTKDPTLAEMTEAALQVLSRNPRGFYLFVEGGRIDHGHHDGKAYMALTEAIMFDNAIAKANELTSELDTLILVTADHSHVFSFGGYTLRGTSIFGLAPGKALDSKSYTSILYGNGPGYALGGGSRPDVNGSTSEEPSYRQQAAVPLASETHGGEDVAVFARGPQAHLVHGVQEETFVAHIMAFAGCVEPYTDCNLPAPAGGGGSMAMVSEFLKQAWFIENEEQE

emission intensity (count) [1]: 13000 count
emission intensity (count) [2]: 13100 count
emission intensity (count) [3]: 3650 count
emission intensity (count), AV [4]: 46600 count
emission intensity (count), AV [5]: 3700 count
emission intensity (count) [6]: 266000 count
emission intensity (count) [7]: 47000 count
emission intensity (count) [8]: 260000 count
emission intensity (count) [9]: 45800 count
emission intensity (count) [10]: 439000 count
emission intensity (count) [11]: 460000 count
emission intensity (count) [12]: 452000 count
emission intensity (count) [13]: 271000 count
emission intensity (count) [14]: 3650 count
emission intensity (count), AV [15]: 450000 count
emission intensity (count), AV [16]: 13000 count
emission intensity (count) [17]: 46800 count
emission intensity (count) [18]: 13000 count
emission intensity (count), AV [19]: 266000 count
emission intensity (count) [20]: 3800 count
Substance: biotin-labeled anti-Annexin A1 antibody (Clone: EH17a)

relative emission intensity (RLU) [21]: 16500 RLU
relative emission intensity (RLU) [22]: 25000 RLU
relative emission intensity (RLU), AV [23]: 16700 RLU
relative emission intensity (RLU) [24]: 86100 RLU
relative emission intensity (RLU) [25]: 33200 RLU
relative emission intensity (RLU) [26]: 87800 RLU
relative emission intensity (RLU) [27]: 21700 RLU
relative emission intensity (RLU) [28]: 50900 RLU
relative emission intensity (RLU), AV [29]: 32400 RLU
relative emission intensity (RLU) [30]: 89000 RLU
relative emission intensity (RLU), AV [31]: 22800 RLU
relative emission intensity (RLU), AV [32]: 51200 RLU
relative emission intensity (RLU) [33]: 51900 RLU
relative emission intensity (RLU) [34]: 32100 RLU
relative emission intensity (RLU) [35]: 21600 RLU
relative emission intensity (RLU), AV [36]: 87600 RLU
relative emission intensity (RLU) [37]: 16400 RLU
relative emission intensity (RLU) [38]: 31900 RLU
relative emission intensity (RLU) [39]: 50900 RLU
relative emission intensity (RLU) [40]: 17000 RLU
Substance: anti-Annexin A1 antibody (Santacruz, sc-12740)
